# IntAct's records for PubMed 19368893
# B1: ADP-ribosylation factor-like protein 2-binding protein (Homo sapiens), Q9Y2Y0 (parent)
# chain: MDALEGESFALSFSSASDAEFDAVVGYLEDIIMDDEFQLLQRNFMDKYYLEFEDTEENKLIYTPIFNEYISLVEKYIEEQLLQRIPEFNMAAFTTTLQHHKDEVAGDIFDMLLTFTDFLAFKEMFLDYRAEKEGRGLDLSSGLVVTSLCKSSSLPASQNNLRH
# Variants of: B1
# Settings: with arl2_human ARL2, P36404
# arl2_human ARL2, P36404, sequence (P36404 whole entry): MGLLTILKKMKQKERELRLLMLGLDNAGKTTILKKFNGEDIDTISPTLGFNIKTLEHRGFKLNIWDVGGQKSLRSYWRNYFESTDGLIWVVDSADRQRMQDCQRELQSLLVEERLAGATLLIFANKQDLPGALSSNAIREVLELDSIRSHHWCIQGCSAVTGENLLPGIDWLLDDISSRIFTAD
row,effect of a mutation on the interaction,Variant
1,decreasing interaction,MDALEGESFALSFSSASDAEFDAVVGYLEDIIMDDEFQLLQRNFMDKYYLEFEDTEENKAIYTPIFNEYISLVEKYIEEQLLQRIPEFNMAAFTTTLQHHKDEVAGDIFDMLLTFTDFLAFKEMFLDYRAEKEGRGLDLSSGLVVTSLCKSSSLPASQNNLRH [L60A]
2,decreasing interaction,MDALEGESFALSFSSASDAEFDAVVGYLEDIIMDDEFQLLQRNFMDKYYLEFEDTEENKLIYTPIFNEYISLVAKYIEEQLLQRIPEFNMAAFTTTLQHHKDEVAGDIFDMLLTFTDFLAFKEMFLDYRAEKEGRGLDLSSGLVVTSLCKSSSLPASQNNLRH [E74A]
3,decreasing interaction,MDALEGESFALSFSSASDAEFDAVVGYLEDIIMDDEFQLLQRNFMDKYYLEFEDTEENKLIYTPIFNEYISLVEKYIEEQLLQRIPEFNMAAFTTTLQHHKDEVAGDIFDMLLTATDFLAFKEMFLDYRAEKEGRGLDLSSGLVVTSLCKSSSLPASQNNLRH [F115A]
4,decreasing interaction,MDALEGESFALSFSSASDAEFDAVVGYLEDIIMDDEFQLLQRNFMDKYYLEFEDTEENKLIYTPIFNEYISLVEKYIEEQLLQRIPEFNMAAFTTTLQHHKDEVAGDIFAMLLTFTDFLAFKEMFLDYRAEKEGRGLDLSSGLVVTSLCKSSSLPASQNNLRH [D110A]
5,decreasing interaction,MDALEGESFALSFSSASDAEFDAVVGYLEDIIMDDEFQLLQRNFMDKYYLEFEDTEENKLIYTPIFNEYISLVEKYIEEQLLQRIPEFNMAAFTTTLQHHKDEVAGDIADMLLTFTDFLAFKEMFLDYRAEKEGRGLDLSSGLVVTSLCKSSSLPASQNNLRH [F109A]
6,decreasing interaction,MDALEGESFALSFSSASDAEFDAVVGYLEDIIMDDEFQLLQRNFMDKYYLEFEDTAENKLIYTPIFNEYISLVEKYIEEQLLQRIPEFNMAAFTTTLQHHKDEVAGDIFDMLLTFTDFLAFKEMFLDYRAEKEGRGLDLSSGLVVTSLCKSSSLPASQNNLRH [E56A]
7,decreasing interaction,MDALEGESFALSFSSASDAEFDAVVGYLEDIIMDDEFQLLQRNFMDKYYLEFEDTEENKLIYTPIFNEYISLVEKYIEEQLLQRIPEFNMAAFTTTLQHHKDEVAGDIFDMALTFTDFLAFKEMFLDYRAEKEGRGLDLSSGLVVTSLCKSSSLPASQNNLRH [L112A]
8,decreasing interaction,MDALEGESFALSFSSASDAEFDAVVGYLEDIIMDDEFQLLQRNFMDKYYLEFEDTEANKLIYTPIFNEYISLVEKYIEEQLLQRIPEFNMAAFTTTLQHHKDEVAGDIFDMLLTFTDFLAFKEMFLDYRAEKEGRGLDLSSGLVVTSLCKSSSLPASQNNLRH [E57A]
